# Test: soluble on expression in E. coli; label from the status in PepcDB or PDB records
row,Sequence,soluble on expression in E. coli
1,MSLTSPLAYSYTHTGTEATTGYFSCEPPQDMTMEQALAWLAVHPMDDFMHRHLLRRLGEMSPEELAKLGPTLQASPVLEALFCELCALAPEGSPLRATLTEILEGLSTTSEASPAAIAERLGAYTPLPYIGWAALPDRELHQAWCRLFSDNIQNHRMLPHPEDNDLAPLYADEEPATRPEPPITAVHARLAAAPGTPWSRPPAHETAQKALEVLVENDIIAGVEMRHEASLSPIALLRRWRLDLGVRNGGLAYTLRGEATTYGRGLSLADARASYAMEMVERASSYANVGPEGILGLTRPQPLRKARHSELVAEGLAVLDPNAIPLEVPYRDQPIHWLTGHASEANGNAPTLVPAQMVYLFCNLDEVALFTSSSSTGLASGNTLAEAKVAALTEILERDAEATTPYDRARCFRPATDDPLLRSLLEDYAARGIQIQMQDMTTEWGIPCYTCFVMSSRGKLARGTGAGLDGRRAAISALTETPYPYPRGGASGPGLRGLPERKLEDLPSFTLESPERNLALLEETLASTGHHPVYVELTRADLGLPVVKALIPGLELTADFDDCTRISRRLYRNYLRMGYDEGHHHHHH,soluble
2,MSLTSQITSNSPVKWKRRTRHDTCGKITLFALQKTMYFDNLSTKKHNLDNLELERSCFEISETMDSSLSIITYSMSVHSLQKNGEPMKQEKQQFIKTDWTIDMINRRQFEKYAIDILTATKDIHRGGWVERIDNKAWQYVRVYENGDIEVLITLQIIRFHKYFDTPVWLQFNPNHLLPADYVQLDHVMKYVDHSHLTRADLANDIYNINLQRYDFGLFGVTRDIYRSLSGDLETRYWGRRKSERQIRLYDKMREMKKHGKADDIPDGITDWWRLEFQFRGGKVESWQEEVEGHHHHHH,not soluble
3,MSLTSTAFAPRSLAPARITAVRVAPLLGESPQGGWSHEIKADDSVHALIALHTDAGISGYGSVFTNGALVQAAADVLTPLLLGENALEPDRIAEKLHQNTFWMGRGGSITHTISGIDIAMWDILGQATGLSVGRLLGGRHRDRVQPYCSLLMDMPERMEAVIAPHRAAGFRAFKIGWGPFGRRGDAGLDRAIIDAARTAVGTDAQLLVDAGASDAYWPNGLKWAMNTAAMLADYDVGWFEEALPPDAIEDFIALRRMSPVPIAGGEVLTRRQSFAPWLVRGAFDIVQPDVTKVGGISEQRRIAWMARDFGIRYVGHGWNTAFGLAADLQLAAAMPDCTLVEYIGGSAYVDRLTTRPFALDAEGMLAIPDLPGLGVSPDPALLARYTPDPEKFFSAEGHHHHHH,soluble
4,MSLTTKYIFVTGGVVSSLGKGITAASLGRLLKNRGMKVTIQKFDPYINVDPGTMSPYQHGEVFVTDDGAETDLDLGHYERFIDINLNKNSNVTTGKIYSSVLKKERRGDYLGGTVQVIPHVTNEIKERVFRAGRETNADVVITEIGGTVGDIESLPFLEAIRQIKSDIGVDNVMYIHCTLIPYLAAAGEMKSKPTQHSVKELRSLGIQPNVIVVRTEKPVPEEMKEKIALFCDIRKDSVIEARDADTLYEVPLDLQAQNLDEIVCDHLNLSCQEADMTEWKSLVEKVKNLSGLVKIALVGKYVALPDAYLSVAEALRHAGYAFDADINIKWVDSEDVTAENVAEQLQGVDGILVPGGFGDRGIEGKIEAIRYAREQKIPFLGICLGMQLASIEFARNVLGLEGAHSAEINPDTPHPIIDLLPEQKDVEDMGGTLRLGLYPCKLKNGTLAQSAYNDQVIYERHRHRYEFNNQYREQMEAKGFMFSGTSPDGRLVEIVELGDHPFFIASQFHPEFVSRPTRPQPLFREFIQASLRKEGHHHHHH,soluble
5,MSLTTMLEVAKRAGVSKATVSRVLSGNGYVSQETKDRVFQAVEESGYRPNLLARNLSAKSTQTLGLVVTNTLYHGIYFSELLFHAARMAEEKGRQLLLADGKHSAEEERQAIQYLLDLRCDAIMIYPRFLSVDEIDDIIDAHSQPIMVLNRRLRKNSSHSVWCDHKQTSFNAVAELINAGHQEIAFLTGSMDSPTSIERLAGYKDALAQHGIALNEKLIANGKWTPASGAEGVEMLLERGAKFSALVASNDDMAIGAMKALHERGVAVPEQVSVIGFDDIAIAPYTVPALSSVKIPVTEMIQEIIGRLIFMLDGGDFSPPKTFSGKLIRRDSLIAPSREGHHHHHH,soluble
6,MSLTTSYHIGNVVCAIIEREGRFLIARRPLGKHLARKWEFPGSKVETGESEAEALERELIEELGVRMEIVERLMPVEHCYADRSLRLIAFHCRIAAGAPNAGEHEELRWIDIGEADDYDFPEADLPILAEYRQKIAASVQSEGHHHHHH,not soluble
7,MSLTTTPANVLASVDLGSNSFRLQICENNNGQLKVIDSFKQMVRFAAGLDEQKNLSAASQEQALDCLAKFGERLRGFRPEQVRAVATNTFRVAKNIADFLPKAEAALGFPIEIIAGREEARLIYTGVIHTLPPGGGKMLVIDIGGGSTEFVIGSTLNPDITESLPLGCVTYSLRFFQNKITAKDFQSAISAARNEIQRISKNMRREGWDFAVGTSGSAKSIRDVLAAEMPQEADITYKGMRALAERIIEAGSVKKAKFENLKPERIEVFAGGLAVMMAAFEEMKLDRMTVTEAALRDGVFYDLIGRGLNEDMRGQTVAEFQHRYHVSLNQAKRTAETAQTFMDSLCHAKNVTVQELALWQQYLGRAAALHEIGLDIAHTGYHKHSAYILENADMPGFSRKEQTILAQLVIGHRGDMKKMSGIIGTNEMLWYAVLSLRLAALFCRSRQDLSFPKNMQLRTDTESCGFILRIDREWLERHPLIADALEYESVQWQKINMPFKVEAVEGHHHHHH,soluble
8,MSLTYHIKTIGNNIDQIALDEIGEGFLVNQVSEAESDAFICRAQPFHDYEFSKALLAIGRAGAGFNNIPIEKCASKGIVVFNAPGGNANAVKELVLSMMIFGTRNLKPANKWLTGQKGDDNTIDGAVEHGKKAFSGSEISGKTLGVIGLGNIGSKVANDAQRLGMRVIGYDPYLSIEHAWNLSHHVKRVNDLAEIFEKADYITVHTPATDETTKMLNWKNLSKCKKGVILLNYARDEITDKEAVLKAIDEGIVRFFGTDFGSEKFYHHPQVFLTPHLGGSTAEASLNCTRMALDSVQTYLKTGEIINSVNFPRVLQELNTPYRVTLINKNVPNVVAQISLAVAAENINIANIVNRGQGDYAYTLLDLDEKDEGKLAALVSRFEAADNIIRVRLIENQSLEGHHHHHH,soluble
9,MSLTYINKEKVIKNLSYAIYLLKKMNFTLIPEVGSNIAESLPFPKDFKDVAALTGRIIKNKLGGFYIVGDIEFGASEHIAKIILSASKFNPEIRACMNIKYDGGLIKLLKDKFAVSSFDRKEEPPNVSTMEWGTKIACEKFGGVPDIIYDRGGEGKEPMIRVLGRDAIEVVKKVEVIQKIYNTLEGHHHHHH,soluble
10,MSLVEKQSALESKARSWLIERGVEIDDIAELVLFLQQKYHPGLELDICRQNVEHVLRKREVQNAVLTGIQLDVMAEKGELVQPLQNIISADEGLYGVDEILALSIVNVYGSIGFTNYGYIDKVKPGILAKLNEHDGIAVHTFLDDIVGAIAAAAASRLAHSYHDDIVNEGGSHHHHHH,soluble
11,MSLVEMVNRPYASAFEAFAVKNPDVLCLSADLTSSCEIDGFRDRHPDQFLSLGMAEQNMMSFAGGLGLAGYRPFLHSFGVFLYRRPYDQLMASVAYPRRKVRLMGFLPGITTPGGMTHQAIEDVAVMRSIPNMSILETGDATEVESICEAADSIDGPVYCRVLRGSIPRLFDTPIRVGEMRELALGADVLVVTSGIATEEALRARDALSNAGVSIRHLHIHTIKPFNEQALLDHIGSVSKGVVVLENHVITGGVGSLVAEIMADNGVGKPLVRLGLNDTYAHGGSRGYLMKHYGLDAGALVRGIERIIGASTGIDEEALASARVDAVHSAVKAEAEGHHHHHH,not soluble
12,MSLVISIRRSRHEEGEELVAIWCRSVDATHDFLSAEYRTELEDLVRSFLPEAPLWVAVNERDQPVGFMLLSGQHMDALFIDPDVRGCGVGRVLVEHALSMAPELTTNVNEQNEQAVGFYKKVGFKVTGRSEVDDLGKPYPLLNLAYVGAEGGSHHHHHH,soluble
13,MSLVLAYYSGYAGNYAALTRYAASFNAVAVDFYNITAQGAVTGNGDPAPNDAISFLLGRKIPAYGCVSNVDGNGNWSADIAHAVSTSAQSQAVANLVKFAQDKRFSGINVDFEAVAQGDRNNFSHFIQVLGRALHAKGLKLIVSVPAFSAKDENHPANYGYDLRALGAAADYLQIMSYDEAIPAWDPGPVAGSDWMEDDLDYAVERVPAAKILNGIPAYGYDWKRPGDGGMLYWKDTQALIARYGAQPRYDAGTHSLTFNYGAADGSRHTVWTENARSVALKASLVNAYGLGGTSLYALGMEDEGHHHHHH,soluble
14,MSLVLGNAWLVLADRVIEHGWVAIADGVIAEVGEGDAPNGAKDMHGDLVMPGLVELHTDHLEAHYTPRPKVQWNPVAAVVSYDGQLATCGITTVLDSLRVWREEGAEEVDGQAIVLAGAISTARDAQLLRADHFLHLRCEIPMPNVVAEAKELIDRPDIRLMSLMDHTPGQRQFRDEEKLRDYYRGKGAGMTDAELDVMFARRVYCKENYADANMRAIVELAHRYEIPLASHDDTTPENVADAIRDRVAVAEFPTTLEAARELHQAGIDILMGAPNVVRGGSHSGNIAAIDLAHEGLLDILSSDYIPSSLLIAALQLPMRAPGIDLAAAIRTVTKAPAEAVGLNDRGEISKGKRADLIRVHVAHDVPAVRSVWREGQRVAEGHHHHHH,soluble
15,MSLVLNDLLICCRQLEHDRATERKKEVEKFKRLIRDPETIKHLDRHSDSKQGKYLNWDAVFRFLQKYIQKETECLRIAKPNVSASTQASRQKKMQEISSLVKYFIKCANRSK,not soluble
16,MSLVNIEFYESVAASEAKFINDTLIPQFEAEYPGIHVTFVNVGSEDVSKDILAMEASGHVGPIVAGQDNLEIGQLIYSSHGNVLMNLTAMSPALMPSSLIPAASNLVQYEQKVFGGIYFFPFRGNVPLVFYNKTALSDAGISSPPANYTQLLQDAMTIHSKTGKDPIMIQGASTNGGHTGSSTATEMYQMMVQFGGNPLYLNDTGDIHAVEMLYNLSAYFSPDFKTGYWGSYRGLAVGNYSILDYQWPYVYNILTASPYNMTNSTLGVYPGPAGPVNANHVLGGDVLFIPKGATNIPSLEAFIRFLLGAQAQRETLLNLSWVAINQNAYRNLPKSESVIFTALEQAIATGVFLRNPTPWITEWQVIFCNDVFNPLFVTHSKTYSDIPSLLSYAHSQMYSYIAANYGQANATLYNNPNAYAPISEGHHHHHH,not soluble
17,MSLVPRVMSTQHPDNARIPFFAASEVLNGEDEVREAYYVFSHFKCDEQMWDFEGKEADAHIVRKLLSSYYDFFSSRPLGKDFRLTMRVPNPEIEKGEAKLLAETLEMIPRSYDYVRSLGIEHPPIFEVILPMTRSAEEVMKVHAFYRDFVAGKGRFELLGEKVSDWLGDFLPEEIKVIPLFEDRDSLMRAAEISERYAEWAELDELRVFLARSDPAMNYGFVAATIYVKKALYDLSQLGISTYPILGVGSCPFRGGFSPKNLSVLDEFPSVYTFTVQSAFKYDYEFGDVRRAIKRAKEAARRKSDYVDEEHLQVAEKLKDGYRRRIAKIAEIVNRISSRIPRRRMRKLHVGLFGYSRGEEIKLPRAITFCASLYSIGLPSEIIGIAEMSDKDYEAVCEVFKNFDGMMESAMSLFNPESLKIVDLSMDFERAKELFGYEPDERHLEKTNEIIKQIDGDIKNLVVEAGILRGFLGEGHHHHHH,not soluble
18,MSLVTIVAPMDEILERAHVVALPMRVKFRGIMVREAVLFDGPKGWGEFSPFVEYGVQEAAQWLRCGLEMAFQGPPPMIRDAVEVNATIPAVSPDQVPEILARYPGCTTVKVKVAEGDDAARVAMVREVLPDARIRVDANRGWTVDQAVAASKHLGELEYMEQPCASVAELAELRRRISVPIAADESIRRVSDPYEVARLHAADVAVVKAAPLGGPRNIVDIAKFYQQRGLSLTVASALDTGVGMNAGIAVAAAIDSNPAGLATQRLFVEDVTEPRTIVDGKMSVEMLAPDPARLAEFEVTGPRRDWWLDRVRGALECLHDFIPEGHHHHHH,not soluble

# Reference: the DeepSol protein solubility set
